The target of the test is SARS-CoV-2 WT RBD protein (SARS-CoV-2 wild type, UniProt P0DTC2). The test is described as follows: ELISA.

B1: rabbit monoclonal antibody (RmAb) 9H1 (antibody, V domains shown)
VH: QSVEESGGRLVTPGTPLTLTCTVSGFSLSRYAMSWVRQAPGKGLEWIGIIVDSGHTAYASWAKGRFTISRTSTTVDLKMTSLTTEDTATYFCARETGGGAFYVFEFWGPGTVVTVSS
VL: QVLTQTPSSVSAAVGGTVTINCQASEDIYDNLVWYQQKPGQPPKLLIYDASTLAFGVSSRFRGSGSGTHFTLTMRDVQCDDAATYYCQGEFSCSSGDCTAFGGGTEVVVK
With B1, the binding result is on record as “binds”.

Values taken from paper PMC10072977 (Biochemical and Biophysical Research Communications, 2023).
